Numbering of substitutions follows the chain as printed. In names and notes the source's numbering stands.
T1: TNFR1 (Homo sapiens, UniProt P19438)
T1 chain: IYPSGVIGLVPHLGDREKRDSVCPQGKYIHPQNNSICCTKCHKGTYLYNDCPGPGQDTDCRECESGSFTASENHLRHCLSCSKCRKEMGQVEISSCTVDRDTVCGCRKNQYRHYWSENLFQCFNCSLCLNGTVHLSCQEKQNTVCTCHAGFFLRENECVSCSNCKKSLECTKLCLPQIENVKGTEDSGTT

B1: K88L (designed binder)
chain: SMEEEVEKAAKEYEKKKKEAIEKHLEKLKAKDKEAAERFLKELEEAAKEYAKDEAKTMSEEEAKRRAKKYKEKVLLSELSEEEQKEILEAEEKLVRTILKYVEEAAK
B2: E14S (designed binder)
chain: B1 chain with E14S, L88K
B3: A47Y (designed binder)
chain: B1 chain with A47Y, L88K
B4: A10K (designed binder)
chain: B1 chain with A10K, L88K
B5: T97A (designed binder)
chain: B1 chain with L88K, T97A
B6: L75C (designed binder)
chain: B1 chain with L75C, L88K
B7: K100Y (designed binder)
chain: B1 chain with L88K, K100Y
B8: A90H (designed binder)
chain: B1 chain with L88K, A90H
B9: A51I (designed binder)
chain: B1 chain with A51I, L88K
B10: E62S (designed binder)
chain: B1 chain with E62S, L88K
B11: E81L (designed binder)
chain: B1 chain with E81L, L88K
B12: A20M (designed binder)
chain: B1 chain with A20M, L88K
B13: A47M (designed binder)
chain: B1 chain with A47M, L88K
B14: K8W (designed binder)
chain: B1 chain with K8W, L88K
B15: K16H (designed binder)
chain: B1 chain with K16H, L88K
B16: E104Y (designed binder)
chain: B1 chain with L88K, E104Y
B17: V74N (designed binder)
chain: B1 chain with V74N, L88K
B18: K48N (designed binder)
chain: B1 chain with K48N, L88K
B19: M58D (designed binder)
chain: B1 chain with M58D, L88K
B20: A47G (designed binder)
chain: B1 chain with A47G, L88K
B21: K15A (designed binder)
chain: B1 chain with K15A, L88K
B22: K27F (designed binder)
chain: B1 chain with K27F, L88K
B23: E49K (designed binder)
chain: B1 chain with E49K, L88K
B24: K85A (designed binder)
chain: B1 chain with K85A, L88K
B25: K52R (designed binder)
chain: B1 chain with K52R, L88K
B26: K100R (designed binder)
chain: B1 chain with L88K, K100R
B27: A9L (designed binder)
chain: B1 chain with A9L, L88K
B28: S77T (designed binder)
chain: B1 chain with S77T, L88K
B29: M58I (designed binder)
chain: B1 chain with M58I, L88K
B30: K23E (designed binder)
chain: B1 chain with K23E, L88K
B31: E81I (designed binder)
chain: B1 chain with E81I, L88K
B32: E81D (designed binder)
chain: B1 chain with E81D, L88K
B33: E86K (designed binder)
chain: B1 chain with E86K, L88K
B34: Q84A (designed binder)
chain: B1 chain with Q84A, L88K
B35: L40S (designed binder)
chain: B1 chain with L40S, L88K
B36: L43Q (designed binder)
chain: B1 chain with L43Q, L88K
B37: K41H (designed binder)
chain: B1 chain with K41H, L88K
B38: A36G (designed binder)
chain: B1 chain with A36G, L88K
B39: A46E (designed binder)
chain: B1 chain with A46E, L88K
B40: K27A (designed binder)
chain: B1 chain with K27A, L88K
B41: K69I (designed binder)
chain: B1 chain with K69I, L88K
B42: K17L (designed binder)
chain: B1 chain with K17L, L88K
B43: E103S (designed binder)
chain: B1 chain with L88K, E103S
B44: A46I (designed binder)
chain: B1 chain with A46I, L88K
B45: E72G (designed binder)
chain: B1 chain with E72G, L88K
B46: E89A (designed binder)
chain: B1 chain with L88K, E89A
B47: E62N (designed binder)
chain: B1 chain with E62N, L88K
B48: L99R (designed binder)
chain: B1 chain with L88K, L99R
B49: E72Y (designed binder)
chain: B1 chain with E72Y, L88K
B50: E62F (designed binder)
chain: B1 chain with E62F, L88K
B51: E49I (designed binder)
chain: B1 chain with E49I, L88K
B52: K88C (designed binder)
chain: B1 chain with L88C
B53: A55G (designed binder)
chain: B1 chain with A55G, L88K
B54: E103P (designed binder)
chain: B1 chain with L88K, E103P
B55: Y101Q (designed binder)
chain: B1 chain with L88K, Y101Q
B56: E3I (designed binder)
chain: B1 chain with E3I, L88K
B57: E61G (designed binder)
chain: B1 chain with E61G, L88K
B58: D53N (designed binder)
chain: B1 chain with D53N, L88K
B59: A10W (designed binder)
chain: B1 chain with A10W, L88K

Biological target: T1, TNFR1
Assay: yeast display SC50

apparent Kd (screen) [nM]	Binder
0.49	B1
7.07	B2
0.49	B3
0.49	B4
1.86	B5
0.49	B6
0.869	B7
0.446	B8
12.5	B9
0.49	B10
0.653	B11
0.446	B12
0.446	B13
1.54	B14
0.446	B15
0.653	B16
16.7	B17
0.49	B18
22.2	B19
0.593	B20

apparent Kd (screen) [nM]	Binder
0.956	B21
0.49	B22
10.4	B23
0.539	B24
0.49	B25
1.27	B26
0.956	B27
2.25	B28
6.43	B29
0.446	B30
0.593	B31
1.69	B32
0.593	B33
11.4	B34
0.446	B35
0.446	B36
0.593	B37
0.446	B38
5.84	B39
0.79	B40

apparent Kd (screen) [nM]	Binder
0.446	B41
1.69	B42
0.49	B43
3	B44
1.54	B45
1.4	B46
0.49	B47
12.5	B48
1.4	B49
0.446	B50
20.2	B51
0.446	B52
8.56	B53
0.49	B54
1.27	B55
12.5	B56
1.54	B57
0.79	B58
3	B59
